Laboratory results taken from the DeepSol protein solubility set.

Experiment: soluble on expression in E. coli; label from the status in PepcDB or PDB records

With “NLPNIVILATGGTIAGSAAANTQTTGYKAGALGVETLIQAVPELKTLANIKGEQVASIGSENMTSDVLLTLSKRVNELLARSDVDGVVITHGTDTLDESPYFLNLTVKSDKPVVFVAAMRPATAISADGPMNLYGAVKVAADKNSRGRGVLVVLNDRIGSARFISKTNASTLDTFKAPEEGYLGVIIGDKIYYQTRLDKVHTTRSVFDVTNVDKLPAVDIIYGYQDDPEYMYDASIKHGVKGIVYAGMGAGSVSKRGDAGIRKAESKGIVVVRSSRTGSGIVPPDAGQPGLVADSLSPAKSRILLMLALTKTTNPAVIQDYFHAY” as the sequence, how does the “soluble on expression in E. coli” value read?
Its value is “soluble”.

With “NLYFQGHMVLKLLLELGAERYAEQFAAKCHELGMVMKESAGPGRVPVPVTLQPSMISRGEFGTLCCMQPLWNEAVDNTARNFTFLRDALQETAASDVNFTGKLLNMLQEVYLSGGPFQQLMLGIFRTDYMREGVYDKMLSTTASRWKNVEINTISCSFAGLSPLITEFHQHIAAYLQVLQKARGKEDDDGVENMSWIWGKGNCRLERSVSGDVVPKAIADAVRAWVEQQKFASLRASWEQFQQNEVGSGEIHQLGVLDTAPVVLVVVQENERNTADQYALLMRVLEEHRIRFIFRTLQELHLSLKLHSISPEQPPLAVVDGHYPIAVAYFRSTYVPEDFPTDATWAARLSLERSSAIKCPSIPYHLLTFKKLQQLLCDVDRVLVPVAFCGDSDKAGLLQRHFVPQYSLNPKEVGEEAVEKVIHDVLQRPDQFVLKPQLEGGGNLLSGETMVKALKATKEGDPVTYSKVRCEYVVMSRIQFHVSTGSLLARGDVVQLERNMCSEVGIFGVILSAAKGSSVGTNGSSVLFNTFAGYTVRSKPADADDGGVMAGVAALDSLAVVP” as the sequence, how does the “soluble on expression in E. coli” value read?
The value was “soluble”.

For “NRGIEFSGGRNYVVKFDQPVSSEAVRSALSSPLQEKVLVTSIGTEGTEVRISTNYKIQEESEETEAEITDKLYQSLKGFYTQQPTADQFLDNIISSQKVSPSMSSDITRGA”, which “soluble on expression in E. coli” value is on record?
The value was “not soluble”.

Which “soluble on expression in E. coli” value does the source give for “NRGVTGGFGITQDITERKKVEEALRISNIYNRSLIEASPDPLVTIGQDGKITDVNNSTETVTGYSRDELIGTDFSDYFTEPERAKKGYQHVFLKGFVKDYPLEIQHKDGRVTQVLYNASVYRDESGEVIGVFAAARD” here?
The value was “not soluble”.

For “NRLKDSKAKSRVVILLTDGSNNMGDITPRMAADIARTFGIRVYTVGVGTRGEAPFPIQTEFGVRIQNVPVDIDEPTLDGIAEVSGGKYFRAVDNETLNEIYKEIDKLEKTRLMTKSFKAYEEK”, which “soluble on expression in E. coli” value is on record?
The value was “not soluble”.

For “NSAHQFHNQQEGEHYILAGYPWFKCRARDMFISLPGLTLALEEVDQFEDVMKTAEKAIRSFINDEPAGYKIYEMEHPDVLLWAVWALQQYAKETSREQCRQKYGELLKDIIEFIRQRKHENLFLHENGLLYANGTDKAITWMNSTVNGHPVIPRTGYIVEFNALWYNALRFVADLVREDGNVLLADALDAQAEVTGKSFIEVFRNEYGYLLDYVDGNMMDWSVRPNMIFAVAFDYSPLDRAQKKQVLDIATKELLTPKGLRTLSPKSGGYNPNYVGPQIQRDYAYHQGTAWPWLMGFYMEAYLRIYKMSGLSFIERQLIGLEDELTIHCISSLPELFDGNPPFKGRGAVSFAMNVAEVLRILKLLSKYY”, which “soluble on expression in E. coli” value is on record?
The value was “not soluble”.

For “NSLDNQVRLLLEDSVPKYNASYFLESKTSEINRRVEALQAVDNKVQLTEQAMQVNEQLASISTVLKSNKMSSEFYQLLESEAGLASLLEKYVDMISTRIDQTRRVDQLMEQINWLHQDIRSELKPVRQEVHWQIERVNDSKEIQNLLVQLSTLQRVIDIESAVYDMAIDVAGASMPEQVDNGMKVIHFRLMDLQESSTTLMNQPTSIAYKQLLQELVVVLSPEGAFDKQLMSLVTLNGDIQKIQEQIALSMEAIHQQIGELVSTADQTFKQVKSETAERVSYGN”, which “soluble on expression in E. coli” value is on record?
Its value is “not soluble”.

Which “soluble on expression in E. coli” value does the source give for “NSSDYRALFLNDVPMMDARAPVEFSKGAFPGVINLPLMNDIERQKVGTCYKQHGQDAAIQLGHQLVCGQVKDERVEAWVEFARANPNGYLYCFRGGLRSQTVQRWLKDAGVDYPRILGGYKAMRTFLLDTLHEAVTE” here?
The value was “not soluble”.

Which “soluble on expression in E. coli” value does the source give for “NTYAPIETLKRLYSEAFRLPDVVGISIGTRIDSVNHEILDFLGEYAREKEVWIEYGIQSIHDRTLEGINRGHDSSEMEYWIKETQNRGIKVCVHLIYGLPGESEEMMLETLDKMIEWQAESIKIHPLYVMAHTALATLYKKGEYTPITLERYAWLIGESMKRIPK” here?
Its value is “not soluble”.

For “NWVTPDGAPGPTGKGGFAAASGRYHLYVSYACPWAHRTLIFREIKGLSAHIPVSAVHPDMLDQGWTFAPEPQGRTGDRLYGLNYAHQVYTRADPTYSGRVTVPILWDSERQTVVSNESSEIIRMFNSAFDGLTGNRDDFWPEALREAIEPVNARIYDTVNN”, which “soluble on expression in E. coli” value is on record?
Its value is “not soluble”.

For “NYGVDFSDIAGQSTSIRALEIAASGGHNIILYGPPGSGKTMLAKRLPTILPPLSYKEALEVSKIYSITGQFDNKNLVFKRPFRAPHHTSSKISLVGGGSKLFPGEISLSHNGVLFLDELLEFKRSSIEVLRQPLEDKVIRFSKSSGNVTYPANFMFISAMNLCPCGNYG”, which “soluble on expression in E. coli” value is on record?
The value was “not soluble”.

Which “soluble on expression in E. coli” value does the source give for “PAPTPSSSPVPTLSPEQQEMLQAFSTQSGMNLEWSQKCLQDNNWDYTRSAQAFTHLKAKGEIPEVAFMK” here?
Its value is “soluble”.

Which “soluble on expression in E. coli” value does the source give for “PDAPRNLQLSLPREAEGVIVGHWAPPIHTHGLIREYIVEYSRSGSKMWASQRAASNFTEIKNLLVNTLYTVRVAAVTSRGIGNWSDSKSITTIKG” here?
The value was “soluble”.

Which “soluble on expression in E. coli” value does the source give for “PDGDFVDLAWSEDPHQARHKPRLVVFHGLEGSLHSPYAHGLIHAAMQRGWLGVVMHFRGCSGEPNRNHRIYHSGETEDGTWFLHWLKREFGPAPTAAVGYSLGGNMLGCLLAEEGDRCPLDAAVIVSAPFMLEACSYHMDKGFSRVYQRYLLNLLKANASRKLKAYPGSLPVDLRQLKGMRRIREFDDMITAKIHGFADALDYYRQCSAMPRLSDITKPTLIIHAKDDPFMDHHSIPPQEQLPANVEYQLTEQGGHVGFVSGTLRKPEMWLERRIPDWLNRWLE” here?
The value was “not soluble”.

For “PDVKFLEGRYCSVEHIDARKHLNDIIDFYWKNAVPSDWTYMFDQPFETAEAVQERLQDYEKSENPYFFAIRDKETDKVLGTFSLMRIDPKNRVLEMGRVIYAPALQKTSAATEAQYLVMNYVFENLGYRRYEWKCDHLNQSSGNAAKRLGFTYEGTFRKHVVYKGRTRDTDWFSVIDQDWPKLKKRFENWLSPKNF”, which “soluble on expression in E. coli” value is on record?
Its value is “not soluble”.

With “PETLVKVKDAEDQLCRTSHRPCRVGYIELDLNSGKILESFRPEERFPMMSTFKVLLCGAVLSRIDAGQEQLGRRIHYSQNDLVKYSPVTEKHLTDGMTVRELCSAAITMSDNTAANLLLTTIGGPKELTAFLHNMGDHVTRLDRWEPELNEAIPNDERDTTMPVAMATTLRKLLTGELLTLASRQQLIDWMEADKVAGPLLRSALPAGWFIADKSGAGRRGSRGIIAALGPDGKPSRIVVIYTTGSRKKTDERNRQIAEIGASLIKHWGLEQKLISEEDLNSAVDHHHHHH” as the sequence, how does the “soluble on expression in E. coli” value read?
The value was “soluble”.

Which “soluble on expression in E. coli” value does the source give for “PFRLHATYDESISRMLDVFEKVDRDIPFNGLPWFFDHAETISPKNIERVRALGGGIAIQDRMAFQGEYFVERYGAKAAEMTPPIQRMLAEGIPVGAGTDATRVSSYNPWTSLYWMVSGRTVGGLELYPQGLSRDTALELYTHGSAWFSSEQGKKGQIKVGQLADLVALSADYFSVEEEAIKWIESLLTVVDGKVVHAAGDFDQLAPPSLPVTPDWSPVAKVPGHWKPGAPLQNQVHQCSGPCAVHAHGHQKARMSNVPVSDFQGFWGAFGCSCFA” here?
The value was “not soluble”.

Which “soluble on expression in E. coli” value does the source give for “PKFHQAFAMINDAISDQSTFRLSCNEALIHRITPTNTISICADTDLPSLLNDLRLKQIDLIISPTTIHNPSFISESVFEEPMVVICRQDHPRIAGKIEQERFYSEKHCRFVGDEDFPVSNTEIHQPGLQERDVEMMTTSLSGMMLYVAKHDCLGVLPLSLAQKWQSALNLQVIQTPMLSEPVSYKLIFHKRDESSTSHQRLRAWARDQFATGLNA” here?
The value was “not soluble”.

For “PKKDWLSYVVSSKARNKIKQQLRLQMESSIGVVKELLNRRLKNRKLPFEEAVFTRVVRRKGFKHLTDFYMEIAADRLDVQEVLELYSHELEEE”, which “soluble on expression in E. coli” value is on record?
Its value is “not soluble”.

For “PLEDWPDDVLASLPRGISRHTVRFVNVDGHVFAIKEIGQKAAYHEYKMLRDLNRLGAPSVQPLAVITGRVDATGQPLTPALVTEHLSFSLPYRAVFSQTSVSRSMRPETATR”, which “soluble on expression in E. coli” value is on record?
Its value is “not soluble”.

With “PLGSDGLPLDPRDWTRADVWKWLINMAVSEGLEVTAELPQKFPMNGKALCLMSLDMYLCRVPVGGKMLYRDFRVRLARAMSR” as the sequence, how does the “soluble on expression in E. coli” value read?
The value was “soluble”.
